Laboratory results from paper PMC11007441, “Deciphering the role of Enterococcus faecium cytidine deaminase in gemcitabine resistance of gallbladder cancer” (The Journal of Biological Chemistry, 2024).

How the values were obtained:
[1] = tested on: Nc1ccn([C@@H]2O[C@H](CO)[C@@H](O)C2(F)F)c(=O)n1; assay: purified protein; conditions: 0.2 uM enzyme; gemcitabine 0.5-8 mM; initial rates 0-1 min
[2] = molecular target: the molecule itself; assay: crystal structure; vapor diffusion, EfCDA at 15 mg/ml; apo-I (0.1 M Tris pH 8.5, 2.2 M (NH4)2SO4), apo-II (0.1 M sodium cacodylate pH 6.5, 20% PEG 4000) and complex with dFdU (co-crystallised with gemcitabine 1:10); tetramer from two molecules of the asymmetric unit by crystal symmetry

## EfCDA (cytidine deaminase of Enterococcus faecium) (Enterococcus lactis)
[1]
  Km: 8.44 mM

B1: cytidine deaminase of Enterococcus faecium (EfCDA) (enzyme, UniProt Q3XXR8 1-132, looked up)
chain: MAELKQEWINTAIEALDKAYVPYSHFPVGACLVTESGKIYQGINIENASFGLTNCAERTAFFKAVSEGEKTFTHLVVAGHTPDPISPCGACRQVMAEFCSPDMPVTLVGDNGVTKATTVRALLPYAFTEKDL
notes: cytidine deaminase of Enterococcus faecium, full-length protein with a single CDA catalytic domain, 132 amino acids; UniProt A0A133N269, WP_002291109.1; Homotetramer in the crystal: molecules A and B in the asymmetric unit, the tetramer completed by a symmetry operation; One zinc ion per chain (C55, C88, C91); also called EfCDD; T-CDA; source: E. coli BL21 (DE3), purified (HisTrap HP, HiTrap Q, …)
[2]
  stoichiometry N: 4
